In general, Kd refers to the constant that tells how readily two partners part at equilibrium. Read a high Kd as a looser complex.

The data set addresses T1, PUF4 RNA-binding domain (Saccharomyces cerevisiae, UniProt P25339 537-888).
T1 sequence: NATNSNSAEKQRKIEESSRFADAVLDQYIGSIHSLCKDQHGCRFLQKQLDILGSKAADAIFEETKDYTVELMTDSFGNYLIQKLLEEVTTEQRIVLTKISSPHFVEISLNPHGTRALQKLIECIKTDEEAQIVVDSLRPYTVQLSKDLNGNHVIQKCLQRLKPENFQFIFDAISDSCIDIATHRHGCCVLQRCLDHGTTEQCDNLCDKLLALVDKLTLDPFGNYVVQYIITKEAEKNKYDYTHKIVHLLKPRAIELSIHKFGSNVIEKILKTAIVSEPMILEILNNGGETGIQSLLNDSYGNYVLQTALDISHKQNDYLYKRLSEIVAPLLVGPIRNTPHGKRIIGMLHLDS
In words: Mg; RNA-MaP; 20 mM Na-HEPES pH 7.4, 30 mM KOAc, 0.75 mM MgCl2, 0.1% Tween-20, 5% glycerol, 0.1 mg/mL BSA, 2 mM DTT; 25 C; 0.0125-409.6 nM protein. Particulars: tags: N-His6-TEV cleaved; C-SNAP kept, Cy3B-labelled; label: tethered on chip by stalled RNA polymerase.
With UCUCUUUUUGUAUUAUUAACUCUCUU (ssRNA) [Id_ii_S1_P5E.2_K5.1_C5.2_[C-2T]_H5.1_A5.1_F5.1_T5.2_[T11A]_[A12C]], binding was put at a Kd of 8.08 nM.

Take UCUCUUACUGUAUUAUUAUUUCUCUU (ssRNA) [Id_ii_S1_P5E.2_K5.1_C5.2_[C-2A]_[T-1C]_H5.1_A5.1_F5.1_T5.2_[A12T]]: binding was put at a Kd of 8.56 nM.

The molecule UCUCUUCGUGUAUUAUUAAUUCUCUU (ssRNA) [Id_ii_S1_P5E.2_K5.1_C5.2_[T-1G]_H5.1_A5.1_F5.1_T5.2_[T11A]_[A12T]] came in with a Kd of 10.1 nM.

UCUCUUUUUGUAUUAUUAUUUCUCUU (ssRNA) [Id_ii_S1_P5E.2_K5.1_C5.2_[C-2T]_H5.1_A5.1_F5.1_T5.2_[A12T]] yielded a Kd of 10.2 nM.

Consider UCUCUUUCUGUAUUAUUAUGUCUCUU (ssRNA) [Id_ii_S1_P5E.2_K5.1_C5.2_[C-2T]_[T-1C]_H5.1_A5.1_F5.1_T5.2_[A12G]], for which binding was characterised by a dissociation constant (Kd) of 5.28 nM.

For UCUCUUACUGUAUUAUUAUCUCUCUU (ssRNA) [Id_ii_S1_P5E.2_K5.1_C5.2_[C-2A]_[T-1C]_H5.1_A5.1_F5.1_T5.2_[A12C]], the Kd came to 9.38 nM.

For UCUCUUUUUGUAUUAUUAGUUCUCUU (ssRNA) [Id_ii_S1_P5E.2_K5.1_C5.2_[C-2T]_H5.1_A5.1_F5.1_T5.2_[T11G]_[A12T]], the Kd turned out to be 3.49 nM.

On to UCUCUUUAUGUAUUAUUAAUUCUCUU (ssRNA) [Id_ii_S1_P5E.2_K5.1_C5.2_[C-2T]_[T-1A]_H5.1_A5.1_F5.1_T5.2_[T11A]_[A12T]], for which the affinity, expressed as Kd, was 10.6 nM.

The molecule UCUCUUCAUGUAUUAUUAAUUCUCUU (ssRNA) [Id_ii_S1_P5E.2_K5.1_C5.2_[T-1A]_H5.1_A5.1_F5.1_T5.2_[T11A]_[A12T]] registered a Kd of 7.68 nM.

UCUCUUCCUGUAUUAUUAAUUCUCUU (ssRNA) [Id_ii_S1_P5E.2_K5.1_C5.2_[T-1C]_H5.1_A5.1_F5.1_T5.2_[T11A]_[A12T]]: binding was characterised by a dissociation constant (Kd) of 6.56 nM.

Regarding UCUCUUUAUGUAUUAUUAUUUCUCUU (ssRNA) [Id_ii_S1_P5E.2_K5.1_C5.2_[C-2T]_[T-1A]_H5.1_A5.1_F5.1_T5.2_[A12T]], the Kd worked out at 7.85 nM.

UCUCUUUAUGUAUUAUUAUCUCUCUU (ssRNA) [Id_ii_S1_P5E.2_K5.1_C5.2_[C-2T]_[T-1A]_H5.1_A5.1_F5.1_T5.2_[A12C]] displayed a Kd of 8.06 nM.

For UCUCUUUGUAAAAUAUCUCUU (ssRNA) [Ic_S1_P4E.1_K4.1_C4.1_H4.1_A4.1_[T5A]_[T7A]_F4.1_T4.1], the Kd turned out to be 3.38 nM.

On to UCUCUUACUGUAUUAUUAAUUCUCUU (ssRNA) [Id_ii_S1_P5E.2_K5.1_C5.2_[C-2A]_[T-1C]_H5.1_A5.1_F5.1_T5.2_[T11A]_[A12T]], for which the affinity, expressed as Kd, was 12.5 nM.

UCUCUUAUUGUAUUAUUAACUCUCUU (ssRNA) [Id_ii_S1_P5E.2_K5.1_C5.2_[C-2A]_H5.1_A5.1_F5.1_T5.2_[T11A]_[A12C]] returned a Kd of 11.1 nM.

In the case of UCUCUUCGUGUAUUAUUAAAUCUCUU (ssRNA) [Id_ii_S1_P5E.2_K5.1_C5.2_[T-1G]_H5.1_A5.1_F5.1_T5.2_[T11A]], the affinity, expressed as Kd, was 15 nM.

With UCUCUUUAUGUAUUAUUAAAUCUCUU (ssRNA) [Id_ii_S1_P5E.2_K5.1_C5.2_[C-2T]_[T-1A]_H5.1_A5.1_F5.1_T5.2_[T11A]], binding was put at a Kd of 16.8 nM.

For the molecule UCUCUUUUUGUAUUAUUAAAUCUCUU (ssRNA) [Id_ii_S1_P5E.2_K5.1_C5.2_[C-2T]_H5.1_A5.1_F5.1_T5.2_[T11A]], binding was characterised by a dissociation constant (Kd) of 16.4 nM.

As to UCUCUUCCUGUAUUAUUAAGUCUCUU (ssRNA) [Id_ii_S1_P5E.2_K5.1_C5.2_[T-1C]_H5.1_A5.1_F5.1_T5.2_[T11A]_[A12G]], the Kd was found to be 14.6 nM.

Turning to UCUCUUCGUGUAUUAUUAUCUCUCUU (ssRNA) [Id_ii_S1_P5E.2_K5.1_C5.2_[T-1G]_H5.1_A5.1_F5.1_T5.2_[A12C]], binding was put at a Kd of 7.38 nM.

Turning to UCUCUUUCUGUAUUAUUAUCUCUCUU (ssRNA) [Id_ii_S1_P5E.2_K5.1_C5.2_[C-2T]_[T-1C]_H5.1_A5.1_F5.1_T5.2_[A12C]], binding was characterised by a dissociation constant (Kd) of 4.88 nM.

Molecule UCUCUUUUUGUAUUAUUAUGUCUCUU (ssRNA) [Id_ii_S1_P5E.2_K5.1_C5.2_[C-2T]_H5.1_A5.1_F5.1_T5.2_[A12G]] displayed a Kd of 7.22 nM.

UCUCUUAUUGUAUUAUUAUUUCUCUU (ssRNA) [Id_ii_S1_P5E.2_K5.1_C5.2_[C-2A]_H5.1_A5.1_F5.1_T5.2_[A12T]]: binding was put at a Kd of 5.93 nM.

With UCUCUUCGUGUAUUAUUAACUCUCUU (ssRNA) [Id_ii_S1_P5E.2_K5.1_C5.2_[T-1G]_H5.1_A5.1_F5.1_T5.2_[T11A]_[A12C]], the Kd is 12.5 nM.

In the case of UCUCUUCGUGUAUUAUUAUUUCUCUU (ssRNA) [Id_ii_S1_P5E.2_K5.1_C5.2_[T-1G]_H5.1_A5.1_F5.1_T5.2_[A12T]], the Kd worked out at 7.48 nM.

UCUCUUUCUGUAUUAUUAACUCUCUU (ssRNA) [Id_ii_S1_P5E.2_K5.1_C5.2_[C-2T]_[T-1C]_H5.1_A5.1_F5.1_T5.2_[T11A]_[A12C]] had a Kd of 5.78 nM.

As to UCUCUUACUGUAUUAUUAUGUCUCUU (ssRNA) [Id_ii_S1_P5E.2_K5.1_C5.2_[C-2A]_[T-1C]_H5.1_A5.1_F5.1_T5.2_[A12G]], the dissociation constant (Kd) was 8.64 nM.

Regarding UCUCUUCCUGUAUUAUUAACUCUCUU (ssRNA) [Id_ii_S1_P5E.2_K5.1_C5.2_[T-1C]_H5.1_A5.1_F5.1_T5.2_[T11A]_[A12C]], the affinity, expressed as Kd, was 7.24 nM.

The values above are taken from PMC9352680, “A comprehensive thermodynamic model for RNA binding by the Saccharomyces cerevisiae Pumilio protein PUF4”.
